Experimental data as given in a protein production outcome set (Wang et al. 2014).

Assay: label from the status in PepcDB records
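Further: failed if final PepcDB status was selected cloned or expressed and not failed if soluble or beyond.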

With “MKIALINENSQASKNHIIYDSLKEATDKKGYQLFNYGMRGEEGESQLTYVQNGLMAAILLNTKAVDFVVTGCGTGVGAMLALNSFPGVVCGLAVDPTDAYLYSQINGGNALSIPYAKGFGWGAELTLKLMFERLFAEEMGGGYPRERVIPEQRNARILNEVKQITHNDLMTILKIIDQDFLKDTISGKYFQEYFFENCQDDEVAAYLKEVLAK” the protein production was “not failed”.
In the case of “MKIATIKTGLASLAMLPGLVMAAPAVADKADNAFMMICTALVLFMTIPGIALFYGGLIRGKNVLSMLTQVTVTFALVCILWVVYGYSLAFGEGNNFFGNINWLMLKNIELTAVMGSIYQYIHVAFQGSFACITVGLIVGALAERIRFSAVLIFVVVWLTLSYIPIAHMVWGGGLLASHGALDFAGGTVVHINAAIAGLVGAYLIGKRVGFGKEAFKPHNLPMVFTGTAILYIGWFGFNAGSAGTANEIAALAFVNTVVATAAAILGWIFGEWALRGKPSLLGACSGAIAGLVGVTPACGYIGVGGALIIGVVAGLAGLWGVTMLKRLLRVDDPCDVFGVHGVCGIVGCIMTGIFAASSLGGVGFAEGVTMGHQLLVQLESIAITIVWSGVVAFIGYKLADLTVGLRVPEEQEREGLDVNSHGENAYNA”, the protein production is reported as “failed”.
With “MKIAVLGTGTVGRTMAGALADLGHEVTIGTRDPKATLARAEPDAMGAPPFSQWLPEHPHVHLAAFADVAAGAELVVNATEGASSIAALTAAGAENLAGKILVDIANPLDFSHGMPPTLNPVNTDSLGEQIQRTFPEAKVVKTLNTMNASLMVDPGRAAGGDHSVFVSGNDAAAKAEVATLLKSLGHQDVIDLGDITTARGAEMLLPVWIRLWGALGTANFNFKIAR” the protein production was “not failed”.
In the case of “MKIFVDGDGSPVKETVIEVAVEKALDVVIVTSVDHYSLKDYPENVSFVYVDKGADAADFKIVQLIKKGDLLITQDYGLASLVLPKGVLVLHQLGYQYTKENIDGLLEQRYFSGQIRRKGGRTKGPKPFTDQDRTTFKQALIELVKRSLLEHHHHHH”, the protein production is reported as “failed”.
In the case of “MKIGVDAGGTLIKIVQEKNGERTYSTRLTTEIEEVIQWLNQQDCNNINLTGGQAAMINEQLNCESRVFVEFDAAAKGLEILLEEQGHFLDDYIFTNVGTGTSLHFSNGKAQKRVGGIGTGGGMIQGLGYLLTGISNYKQLTDTAQNGNRDIIDLKVKHIYKDSEPPISGDLTAANFGNVLHHLDESFTDADKLASVIAVVGEVITTMSITVAREHNTKNVAYIGSSFHNNDLLKDVVKDYTVLRGCEPYYIEHGAFSGALGSIHLLEHHHHHH”, the protein production is reported as “failed”.
For “MKIIFSASPANRAAAYALRQAVFVEERGISADVEFDVKDTDQCEYAVLYLQPDLPITTLRLEPQADHVMRFGRVCTRKAYRGHGWGRQLLTAAEEWATQRGFTHGEIHGELTAQRFYELCGYRVTAGPYDEDGAPVVIMHKQ”, the protein production was “failed”.
For “MKIIFSASPANRAAAYALRQAVFVEERGISADVEFDVKDTDQCEYAVLYLQPDLPITTLRLEPQADHVMRFGRVCTRKAYRGHGWGRQLLTAAEEWATQRGFTHGEIHGELTAQRFYELCGYRVTAGPYDEDGAPVVIMHKQLL”, the protein production was “not failed”.
With “MKIIRNYLYNASYQVLILLTPLITVPYVARVLGPTGVGVYSYTNSIITYFVLIGTLGITVYGNQQIAFHRDDIIERSRTFWEIELLQAVNVGITFLGFGIFLILDHRYQLFMVFQSCQLLAGAFDVSWFFMGIEDFKKTVFRNTLVKIATLGAIFIFVRTQSDLGLYILILALSQLVGNFTLWPYLKTRLVRIKFKDLKIWHHYVPALMLFVPQAANLVYQQVNKTMLGNLDTVNSVAYFDYADKLIKTVLAVVTATGIVMLPHMANLHAKGKNETIKRYLYKSFEFVSMIALPLGFGIAGIATTLAPIYFGQDFSISGKLLIIEAPVILLIGWSNVIGQQYMMPTEQISKYTKSVIIGAIVNVILNVPLIMYLGAVGAPIATVAAELSVTLYQLFVVRKQIQINLLFSDFWKYLFSSTVMFIVVYGLNVSMPMSIINLIVQIVEGMIIYLGMLLVLQPKLVVEGKSLLLGKLHK” the protein production was “failed”.
In the case of “MKIKHWDRWLASLKDDDYLKNIEAIKLYLAVMSIYEPDLLDEYMIDDDFHPMISRLKNVTLDVTSARFKELYITESKMNYARDELDGAMIISKTLTKSDIVGNVALPKAQVMSVLTRMNGVTDEGLDNGFEVQVHDIMEDDLYTVTLKRIDDMKYYFGTGWSTMKHSLDLVEGDVQKLYWDQFENKFIVLNFQHKTMGIMIPV”, the protein production is reported as “failed”.
In the case of “MKIKILAVLAVVTVIVVSMFMREKREDPSSLVMMNVEALATGEGTSPAICVGTGSVVCPNDGSKVLYYR”, the protein production is reported as “failed”.
In the case of “MKILIDGDACPKAVLQICLKKGRQYGIPVWTVASFNHEIASDHHIVVGNAPQETDLKVVNLSEAGDIIVTQDIGLAAMVLGKGARALSPTGKEYRPESIANLLEERELKAKYRRSLEHHHHHH”, the protein production is reported as “not failed”.
For “MKILLIGGSGNIGRAIAAELSGRHEIIAAGRHHGDVRVDIEDEQSIAAMYRQLPRLDAVAVATGGRNGHVGPLAEMNAERYRVGLDAKLMGQVNLVLRGLDKVADGGSFTLVGGAWQPQAIVPLLSNVYMANAALEGFVNAAAVELPRRLRINLVSPLLLAESEAEYGPLFRGVPLVEARQVARAYSLSIEGAQTGQTYRLGRLDLEHHHHHH”, the protein production was “not failed”.
For “MKILTQSLPNSSAAYLQGYLRENTDSSVTYPTVIIVPGGSYTHIPERQAEDLALAWVARGYQAFFLRYSFISEKTPLLPNPVIELAQSVAAIHAHATTWHVDLRRLAVAGFSVGGHITALFNDWWSEADFNQQAHTTPEQLKVQAVILGYPVISPDLGFPTDAATLATWSTTPKKIAADQHVTAANAPTFIWVTANDPLVPVQNALAYAQASLTHGVDTELHVFHNGPHGLALANSVTAWKPGTDLPHVAHWLDLATEWLQDLKLEHHHHHH”, the protein production was “not failed”.
With “MKILVVSGFLGAGKTTFIRTLAERTKKDFAVMENEYGAVNVDGDLLEQTNDLNIWELTEGCICCSMQNDFATSILTIANTVDPEYLIVEPTGVGMLSKIIENIQKIEYERITLLEPLTILDGTMYDRCMFEFSEICEDQIQSAGRILVSKMEYAAENERCSLKQKLIALNPEAEICVSHYTEQGDDWWASLLTSYLDKEIPMKEERELDLENLGLTEASLQSEQELILFLQGVVSGVFGDICRAKGYLPAGNGWLRFDVTDRTYSVTGIDTMPEAKAIFIGRQLKRNWLREVLQKELYVEVSKRAIRPMRKRSEVLEHHHHHH” the protein production was “failed”.
In the case of “MKIMGFYSQVILPRLLDWSLSDPTLATYRQELLTDVTGEVLEIGFGTGLNLAYYPSHIHKITTVDVNPGMNTIAQKRIDDSGIKVQQLLLSGENLPMADNTFDSVVSTWTLCSIANVEQALQEVYRVLKPGGKFFFLEHGLSNKPNVQVWQNRLTPIQKVLADGCHLNRNIQQLVEQSFDHVELKRFTPENFPDLMAHFYKGCATKKSILEHHHHHH”, the protein production is reported as “not failed”.
In the case of “MKIPIILTLMLFSLGFIFGFISINNLSKINDKDLSNYIPNIQFNFPSILTNNLKVIFLMLAGSITFGLSTFINLIFNGFNVGVLIGSISLTNEPLKLITALILPHGIFEISAMLISAVAGFKIPYKVTLYLLDKKEKPLTEEDIKDFLKLSLISIILIVIAAFIEVYITPKIATYLLT”, the protein production is reported as “failed”.
For “MKIQCDVCEKAPATLICCADEAALCAKCDVEVHAANKLASKHQRLFLDSLSTKFPPCDICLEKAAFIFCVEDRALLCRDCDEATHAPNTRSANHQRFLATGIRVALSSTSCNQEVEKNHFDPSNQQSLSKPPTQQPAAPSPLWATDEFFSYSDLDCSNKKEQLDLGELDWLAEMGLFGDQPDQEALPVAEVPELSFSHLAHAHSYNRPMKSNVPNKKQRLEYRYDDEEEHFLVPDLG”, the protein production was “not failed”.
In the case of “MKIRNDGPALAGWNVAWEMPDGQEITNSWNGRFVQTGAHVDVGNLDWNKDIPAGSNIEFGFNGSHTGRNRTPASLSVNGVKCTMAVAAPPPSPRPAACEATYQISDQWNTGFTANVRIRNDGDPLAGWKVVWDMPDGQRVTNSWNGRFTQSGSHVEVGHLDWNRDIATGSNIEFGFNGSHAGANRAPSSLSLNGVACALVTVAPSPTPAPTATPSPIPTPTPSPAPTASPSPAPTPTPAPTSSPSPTPAPTGPCQADYQVTAQWNDGFTANVKVRNNGTALDGWTVAWTMPSGQTVTGMWNGQYVQTGPQVAVTPADWNRQIASGASIEFGFNGSHSGSNAVPGVLTLNGAACATTTGGGTPTPTPVPVAPGAPAGLSATVADNAVVNLVWTAADAFAQGFRIERRTAAGVDWALVAETAAGVPSFGDGTVAMGNDYEYRVYAFNAVGNSPPATASASLPTLLKYGESQYQKQGCASCHGKDGKGGFTNKPLVHFTADQLATLTEIIRVRMPPSKPANCVSNCAAGTAKYIIEVLAAAASGGGGGGGNACAGSPPPGGRALRLLTRQEYQNTVNDLLGLSENLVHLLPEENRVDGFDNNVATNLVTSIRLEAFLTQAEALAAKAVQQNWNALLPCTQQDAACARRFVEAFGKRAYRRPLTPEEADAYAALFGQGSFREGVEATITHMLVSPNFLYRSELGEVQADGTYKLTPYETASALSYLFLGSLPDGELVSAADQNLLDTPDQRIAHASRLLSLPRSRNRVGHFVGQWLLGTSPYTLPEKDQAVYPRYDAAVRSAMSEELIGFFDHVAFESTQSFPELFTANYVVVDDTLADYYGLGRPGGSGFAPVTVSDGTRTGILTLGAVLSRYANSNESHPFKRGGFLYKRLLCRDLPLPANAGFIQAPQPDPNATTRQRFEFHSKSNTSCYGCHQYLDGPGFGFENYDGAGIFRASENGQAIDASGVLRGLETFTPTEELSFTDLPDLSRKIAASPTAAQCAARQYYRFATGRREASSDSCALDSFLQTYSANGHNLQTMLLGIVNAPGFTVRRADQ”, the protein production is reported as “failed”.
In the case of “MKISAVVVTFNRKKLLLECLNALRNQTYPLDAIFIIDGPSTDGTPEALLECGYIKELPPKKGNWSWETKNVIYSPINNKPIKVYYVRLYKDVGGSGGFYEGVKRAYEEGYNWIWLMDDDAEPREDALEKLIRYMNLPGVIALAPTVIRPTGEISKPHRGILCFKKIFPMIQIPLDESKYKSNQPVQIDFVSFVGPLIKRDAIKIVGFPKKEFFIHHDDVEYSIRLRTVGKIYLIPDSVIIHKENIKKTSLIKKRFLGKTIYRIPYNKLWKTYYGTRNLTYLGRIYSKSKFKFYFKLLKRWAVSVGAIILFDDHKIKRIQFITSAYLDGLRGKFDNEKPKRILYGGKKELEHHHHHH”, the protein production is reported as “not failed”.
With “MKISQLLSLDTIKLNLAASNKNEVIDQLVDVLWDAGKLTDKNLYKEEILKRESLSSTGIGERIAIPHAKTKAVKNASLALGIYKYGVDYDSLDGEPVNIVFMIAAPAGANDEHLETLSRLSVLLMNPDFKNGLLNAKTPEEVISLLDKFEENEESDETQASNEAENNSNKKYILAVTACPTGIAHTYMAADSLNKTAKEMDVHIKVETNGSTGVKNRLTQEDIDKADGIIVAADKQVEMARFNGKKVVIVPVVQAMKRPQELINEALSGSAPVYSHSGDSSNQSSGKTERRGFYKHLMNGVSNMLPFVVGGGILIAISFMFGIHSAEINDPTFNPIAKLLKDIGGGNAFFLMIPVLAGFIGSSIADRPGFAPAMVGGLIAANSGSGFLGGLIAGFLGGYVVVLLKKIFSKLPQSLEGIKPVLLYPLFGILITGALMYLVIVGPVTALNNNIAIWLQNMGTGNLVLLGIVLGGMMAIDMGGPINKAAFTFGIAMIASGNYYPHAAIMAGGMVPPLATALATTFFKNKFTKDERDAGTTNYIMGLTFITEGAIPFAAADPFRVIPACVIGSAIAGGLSMVFKIGLPAPHGGIFVVPVVEGNPLLYLLSILVGSIVAALIIGFLKKPVNEINK” the protein production was “failed”.
With “MKITILSGGTGTPKLIQGFKEILPNEDISVIVNTGEDTYIGDIYLSPDIDTVLYTFSNLINDETWYGLKGDTFFCHEQLKNFGFDEVLRIGDKDRALKMHKTSLLKKGVPMSEIVDIERKSLSINSKIYPMSDEKIESKVLIEENNEKILLKFHDFWVSRRGNAKVLDIFYENSNYAKAADGVLKAIEESDFVIIGPSNPITSIGPILSISEIKDALKEKLVFAVSPIVGENPVSGPAGTLMHAKGYPVNAVGVYEYYKDIVDVLVLDNSDINKKKEMNCEVLYANTIMKTIDDKITLARNILDYYKSR” the protein production was “failed”.
